The series deals with the molecule itself. In words: cross-linking; in vivo: intact 293T cells (WT; MIEF1/2/Mff-/-; overexpressing MIEF1-V5, MIEF2-V5 or Myc-Mff; or Drp1-/- transfected with untagged Drp1 for 18 h) with 1 mM DSS in PBS with Ca2+/Mg2+, time course or 3 h, room temperature, quenched with 50 mM Tris pH 7.5; reducing SDS-PAGE and Western blot. In general terms: Immunoblotting shows a protein as a band on a membrane.

B1: untagged Drp1-4A (natural protein, human, UniProt O00429 1-736, looked up)
chain: MEALIPVINKLQDVFNTVGADIIQLPQIVVVGTQSSGKSSVLESLVGRDLLPRGTGIVTRRPLILQLVHVSQEDKRKTTGEENGVEAEEWGKFLHTKNKLYTDFDEIRQEIENETERISGNNKGVSPEPIHLKIFSPNVVNLTLVDLPGMTKVPVGDQPKDIELQIRELILRFISNPNSIILAVTAANTDMATSEALKISREVDPDGRRTLAVITKLDLMDAGTDAMDVLMGRVIPVKLGIIGVVNRSQLDINNKKSVTDSIRDEYAFLQKKYPSLANRNGTKYLARTLNRLLMHHIRDCLPELKTRINVLAAQYQSLLNSYGEPVDDKSATLLQLITKFATEYCNTIEGTAKYIETSELCGGARICYIFHETFGRTLESVDPLGGLNTIDILTAIRNATAAAAALFVPEVSFELLVKRQIKRLEEPSLRCVELVHEEMQRIIQHCSNYSTQELLRFPKLHDAIVEVVTCLLRKRLPVTNEMVHNLVAIELAYINTKHPDFADACGLMNNNIEEQRRNRLARELPSAVSRDKSSKVPSALAPASQEPSPAASAEADGKLIQDSRRETKNVASGGGGVGDGVQEPTTGNWRGMLKTSKAEELLAEEKSKPIPIMPASPQKGHAVNLLDVPVPVARKLSAREQRDCEVIERLIKSYFLIVRKNIQDSVPKAVMHFLVNHVKDTLQSELVGQLYKSSLLDDLLTESEDMAQRRKEAADMLKALQGASQIIAEIRETHLW
notes: human Drp1 isoform 1 with the four residues 401GPRP404 mutated to AAAA, untagged; Made by site-directed mutagenesis on untagged Drp1-WT; Copies: ~280 kDa cross-linked product said to correspond to tetramers; also called Drp1-4A mutant
As a reminder, the stoichiometry N is a count of units in the complex or per binding partner. As for B1, the “stoichiometry N” value is 4.

These data come from publication PMC8602864, “The Molecular Assembly State of Drp1 Controls its Association With the Mitochondrial Recruitment Receptors Mff and MIEF1/2” (Frontiers in Cell and Developmental Biology, 2021).
